Experiment: yeast display, Sf9 membrane polyspecificity reagent, FACS + sequencing; frameworks hold sequencing errors
In short: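 Nanobodies from a synthetic yeast display library (Saccharomyces cerevisiae BJ5465), induced 36–48 hours with galactose, were stained 1 hour at 4 °C with 10% biotinylated, detergent-solubilized Sf9 membrane reagent, enriched on streptavidin microbeads, then FACS-sorted. Anti-HA (expression) and streptavidin (reagent binding) fluorescence set low and high (top ~1%) gates. Polyreactivity labels come from the gate of origin. Genes were colony-PCR amplified, MiSeq 2 × 250 sequenced and filtered by CDR length.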
In the case of “QVHLVESGGGFVQAGGSLGLSCAASGLTFSGNTMGCYTPAPGKERELVAAISSDGSTNYADSVKGRFTLSRDNAKYSVYLQMNSLKPEDTAVYYCNARVRYYFAFWRDYWGQGTQVTVSS”, the “polyreactivity (PSR sort gate)” value is reported as “low polyreactivity”.
With “QVQLVESGGGLVQAGGSLRLSCAASGRIFDHNAMGWYRQAPGKERELVAAIDWSGGSTYYADSVKGRFTISRDNAKNTVYLQMNSLKPEDTAVYYCNVYWHTFSWDDYGYWGQGTQVTVSS” the “polyreactivity (PSR sort gate)” value was “low polyreactivity”.
For “QVQLVESGGGLVQAGCSLRISCAASGLIFQYYAMGWYRQAPGKERELVAAISGFGVRTYYADSVKGRFTISRDNAKNTVYLQMNSLKPEDTAVYYCNTLRQDIIRGDYWGQGTQVTVSS”, the “polyreactivity (PSR sort gate)” value was “high polyreactivity”.
With “QVQLVESGGGLVQAGGSLRLSCAASGFTFTGYAMGWYRQAPGKERELVAAINRSGGTTYYADSVKGRFTISRDNAKNTVYLQMNSLKPEDTAVFYCAAFPSGRHRGDYWGQGTQVTVSS” the “polyreactivity (PSR sort gate)” value was “high polyreactivity”.
With “QVQLVESGGGLVQAGGSLRLSCAASGFISQFYAMGWYRQAPGKERELVAAINWRGDSTYYADSVKGRFTISRDNAKNTVYLQMNSLKPEVTAVYYCAAENWSGYDYWGQGTQVTVSS” the “polyreactivity (PSR sort gate)” value was “high polyreactivity”.
In the case of “QVQLVESGGGLVQAGGSLRLICAASGSIFTPYAMGWYRQAPGKERELVAAISTSGGSTYYADSVKGRFTISRDNAKNTVYLQMNSLKPEDTAVYYCYTVYYSQREIYYWGYDSWGQGTQVTVSS”, the “polyreactivity (PSR sort gate)” value is reported as “high polyreactivity”.
In the case of “QVQLVESGGGLVQAGGSLRLTCAASGNTFYGYSKGWYRQATGKERELVASISLSGDSTYYADSVKGRFTISRDNAKNTVYLQLNSLKPEDTAVYYCAGVYTYPLGYYHYTYDYWGQGTQVTVSS”, the “polyreactivity (PSR sort gate)” value is reported as “low polyreactivity”.
For “QVQLEESGGGLVQAGGSLRLSCAASGRIFFKYSMGWYRQAPGKERELVATISSSTGSTYYADSVKGRFTISRDNAKNTDYLQMNSLKPEDTAVYYCNARVRTQQRWVDYWGQGTQVTVSS”, the “polyreactivity (PSR sort gate)” value was “high polyreactivity”.
With “QVKLVESGGGLVQAGGSLRLSCAASGSIFQGYAMGWYRQAPGKERELVAAISGRGGSTYYADSVKGRFTISRDNAKNTVYLQMNSLKPEDTAVYYCNAPRYYWISFARWPASYYYWGQGTQVTVSS” the “polyreactivity (PSR sort gate)” value was “high polyreactivity”.
In the case of “QVQLVESGGGLVQAGGSLRLSCAASGRIFYRYAMGWYRQAPGKERELVAAISSAGSTNYADSVKGRFTISRDNAKNTVYLQMNSLKPEDTAVYYCNTVTRWVGKLEYWGQGTQVTVSS”, the “polyreactivity (PSR sort gate)” value is reported as “high polyreactivity”.
For “QVQLVESGGGLVQAGGSLRLSCAASGSTFNSYTMGWSRQAPGEERELVAAITWSGGRTYYADSVKGRFTISRDNAKNTVYLQMNSLKPEATAVYYCAKDRVGEMYYWGQGTQVTVSS”, the “polyreactivity (PSR sort gate)” value was “low polyreactivity”.
With “QVQLVESGGGLVQAGGSLRLSCAASGLTFGLNAMGWYSQAPGKERELVAAITWSGGSTYYADSVKGRFTISRDNAKNTVYLQMNSLKPEDTAVYYCATDNLSVNGGYNYWGQGTQVTVSS” the “polyreactivity (PSR sort gate)” value was “low polyreactivity”.
With “QVQLVESGGGLVQAGGSLRLRCAASGSTFLKNAKGWYRQAPGKERELVAAISYSTTRSYYADSVKGRFTISRDNAKNTVYLQMNSLKPEDTAVYYCAADGYWWTYTRYDYWGQGTQVTVSS” the “polyreactivity (PSR sort gate)” value was “low polyreactivity”.
In the case of “QDQLVESGGGLDQAGGSLRLICAASGRIFIYYAMGWYRQAPGKETELVAAISSTGTTNYADSVKGRFTISRDNAKNTVYLQMTSLKPEDTAVYFCAARVRTATRRFTSYSWGQGTQVTVSS”, the “polyreactivity (PSR sort gate)” value is reported as “high polyreactivity”.
With “QVQLVESGGGLVQAGGSLRLSCAASGGIFLPYAMGWYRQAPGKERELVAGITSVGSTYADSVKGRFTISRDNAKNTVYLQMNSLKPEDTAVYYCNADIYFVEYDYWGQGTQVTVSS” the “polyreactivity (PSR sort gate)” value was “low polyreactivity”.
For “QVQLVESGAALVQAGGSLRLSCAASASTYVSYAMGWSRQAPGKEREFVAAITWRGDSTYYADSVKGRFTISRDNAKNTVYFQMNSLKPEDTAVDYCAADGRSWRYYSPYYYWGQGTQVTVSS”, the “polyreactivity (PSR sort gate)” value was “low polyreactivity”.
With “QVQLVESVGGLVQAGGSLRLSCAASGSIFRRYTMGWYRQAPGKERELFAAISRVGNTNYAHSVKGRFTISRDNAKNTVYLQMNSLKPEATAVYYCAARAIGYRYTPGLNYWGQGTQVTVSS” the “polyreactivity (PSR sort gate)” value was “high polyreactivity”.
With “QVQLVESGGGLVQAGGSLRLSCAASGSTFLSNAMGWYRPAPGKERELVAGIDYNDGSTYYADSVKGRFTISRDNAKNTVYLQMNSLKPEDTAVYYCAARWVFRRYVIGMDYWGQGTQVTVSS” the “polyreactivity (PSR sort gate)” value was “low polyreactivity”.
With “QVQLVESGGGLVQAGGSLRLSCAASGRIFNSYAMGWYRQAPGKERELVAAISWSGSSTYYADSVKGRFTISRDNAKNTVYLQMNSLKPEDTAVYYCAAGTRYFDYWGQGTQVTVSS” the “polyreactivity (PSR sort gate)” value was “high polyreactivity”.
For “QVQLVESGGVLVQAGGRLSLICAASGRTFARYVMGWYRKAPGKERELVAAINSGGTTYYADSVKGRFTISRDNAKNTVYLQMNSLKPEDTAVYYCNARRGHYAYDYWGQGTQVTVSS”, the “polyreactivity (PSR sort gate)” value was “high polyreactivity”.
For “QVQLVESGGGLVQAGGSLRLSCPASGFNFPYYAKGWYRQAPGKEREFVAAISSGGNTNYADSVKGRFTISRDNAKNTVYLQMNSLKPEDTAVFYCAAGFLRYLNWSVKYDYWGQGTQVTVSS”, the “polyreactivity (PSR sort gate)” value was “low polyreactivity”.
In the case of “QVQLVESGGGLVQAGGSLRLSCAASGRIFRPYAMGWYRQAPGKERELVAGITSSGGSTYYADSVEGRFTISRDNAKNTVYLQMNSLKPEDTAVYYCAAVHGLFRPLHYYWGQGTQVTVSS”, the “polyreactivity (PSR sort gate)” value is reported as “low polyreactivity”.
With “QVQLVESGGGLVQAGGSHRLSCAASGFIFGRNAMGWYRQATGKDRELVDANTRSGGSTYYADSVKGRFTISRDNAKNTVYLQLYSLKPEDTAVYYCAKGLFTWGVFRVGIRDDYWGQGTQVTVSS” the “polyreactivity (PSR sort gate)” value was “high polyreactivity”.
In the case of “QVQLVDSGGGLVQAGGILRLSCAASGRTFTYYTMGWYRQAPGKESEMVAAITWSGGRTYYADSVKGRFTISRDNAKNTVYLQMNILKPEDTAVYYCAAYEIYYEFDSWGQGTQVTVSS”, the “polyreactivity (PSR sort gate)” value is reported as “low polyreactivity”.
With “QVQLVESCGGIDQAGGSLRLTCAATGRIFNSYPMGWYRQAPGKERELVAAISRNGGITYYADSVKARFTISRDNAKITVYLQMNILKQEDTAVYYCNADSSRRLYSSEYWGEGTQVTVSS” the “polyreactivity (PSR sort gate)” value was “high polyreactivity”.
In the case of “QVQLVESGGGLVQAGGSLRLSCAASGRILGFYAMGWDRQAPGKERELVARINWSGTRTYYADSVKGRFTISRDNAKNTVYLQMNSLKPEDTAVYYCAAERYPYVVTYSKLDYWGQGTQVTVSS”, the “polyreactivity (PSR sort gate)” value is reported as “high polyreactivity”.
For “QVQLVESGGGLVQAGGSLRLSCAASGSIFYGYAMGWYRQAPGKEREFVAGIDSSGGSTSYADSVKGRFTISRDNAKNTVYLQMNSLKPEDTAVYYCAKQIVSGRRVDRNDYWGQGTQVTVSS”, the “polyreactivity (PSR sort gate)” value was “low polyreactivity”.
With “QVQLVESGGGLVQAGGSLRLSCAASGRIFRYNAMGWYRQAPGKERELVAAISWTVGRTYYADSVKGRFTISRDNAKNTVYLQMNSLKPEDTAVYYCATYFRVWYRSYDYWGQGTQVTVSS” the “polyreactivity (PSR sort gate)” value was “high polyreactivity”.
For “QVQLVESGGGLVQAGGSLRLICAASGRIFYRNAMGWYRQAPGKERELVAAISGATSTYYADSVKGRFTFSRDNAKNTVYLQMNSLKREDTAVYYCAAKIIWYTIRHGSAGFNYWGQGTQVTVSS”, the “polyreactivity (PSR sort gate)” value was “high polyreactivity”.
For “QVQLVESGGGLVQAGGSLRLSCAASGRTLTRYTMGWYRQAPGKERELVATISRSGGNTHYADSVKGRFTISRDNAKNTVYLQMNSLKPEDTAVYYCNAVRYALYGYDYWGQGTQVTVSS”, the “polyreactivity (PSR sort gate)” value was “high polyreactivity”.
With “QVQLVESGGGLVQAGGTLRLSCAASGSTFIGNAMGWYRQAPGKVRELVATITSGDSKYADSVKGRFTISRDNAKNTVYLQMNSLKPEDTAVYYCNADPWDIGSTFELDYWGQGTQVTVSS” the “polyreactivity (PSR sort gate)” value was “low polyreactivity”.
In the case of “QVQLVESGGGLVQAGGSLRLSCAASGRTFYQYTMGWYRQAPGKERELVAAITTSTGNTYYADSVKGRFTISRDNAKNTDYLQMNSLKPEDTAVYYCAADTVWRLDYWGQGTQVTVSS”, the “polyreactivity (PSR sort gate)” value is reported as “low polyreactivity”.
In the case of “QVQLVESGGGLVQAGGSLRLSCAAYGFTIRRYAMGWSIQAPGKERELVAAITWSAGSTYYADSVKGRFTISRDNAKYTVYLQMNSLKPEDTAVYYCAARCKRWGADSGYYWGNGTQVTVSS”, the “polyreactivity (PSR sort gate)” value is reported as “high polyreactivity”.
In the case of “QVQLVESGGGLVQAGGSNRLSCAASGLTSFRYTMGWYRQAPGKDRELVAGISGSRGRTYYADSVKGRFTISRDNAKNTVYLQMNCMKAVDTAVYDCAAGWYTSHAKGKGGYWGQGTQVTVSS”, the “polyreactivity (PSR sort gate)” value is reported as “high polyreactivity”.
For “QVQLVESGGGLDQAGGSLRLSCASSGFTFGRYAMGWYRQAPGKERELVDTITRSGVNTYYADSVKGRFTISRDNAKNTVYLQMNSLKPEDTAVSYCNVRYPLATYRLPAGEFDYWGQGTQVTVSS”, the “polyreactivity (PSR sort gate)” value was “high polyreactivity”.
With “QVQLVESGVGLVQAGGSLRLSCVASGLTFSRYAMGWYRQAPGKERELVAAISRRGGTTYYADSVKGRFTISRDNAKNTVYLQMKSLKPEDTAVYYCGAGYITWGSGNWVVTPYAYWGQGTQVSVSS” the “polyreactivity (PSR sort gate)” value was “high polyreactivity”.
In the case of “QVQLVESGGGLVQAGGSLRLSCAASGSIFVWYAMGWYRQAPGKERELVARITSGGRTNYADSVKGRFTISRDNAKNTVYLQMNSLKPEDTAVYDCAAGRVSWSPYYYWGQGTQVNVSS”, the “polyreactivity (PSR sort gate)” value is reported as “high polyreactivity”.
For “QVQLVESGGGLVQAGGSLRLSCADSASIFRNAMGWYRQAPRKERELVAGIRWSDGSTNYADSVKGRFTISRDNANITVYLQMNSLKPEDTAVYYCAKGAYFARRMYYWGQGTQVTVSS”, the “polyreactivity (PSR sort gate)” value was “low polyreactivity”.
In the case of “QVQLVESGGGLVQAGGSLRLSCAASGRTFRLYAMGWYRQAPGKERELVAAITRGGRTNYADSVKGRFTISRDNAKNTVYLQMNSLKPEDTAVYYCATDLVGAGVKGVRFVGRYRGDYWGQGTQVTVSS”, the “polyreactivity (PSR sort gate)” value is reported as “low polyreactivity”.
With “QVQLVESGGVLVQAGGSLRLSCAASGNIFYAYAMGWYRQAPGKERELVAAISWSGDSTYYADSVKGRFTISRDNAKNTVNLQMNSLKPEETAVEYCAADSYRFYSGYYYWGQGTQVTVSS” the “polyreactivity (PSR sort gate)” value was “low polyreactivity”.
With “QVQLGESGGGLVQAGGSLRLSCAASGSIFWLYAMGWYRQAPGKERELVAAIDSGDSRKYADSVKGRFTISRDNAKNTVYLQMNSLTPEDTAVYYCNASRRYHVRAPYDYWGQGTLVTVSS” the “polyreactivity (PSR sort gate)” value was “low polyreactivity”.
With “QVQLVESGGGLVQAGGSLRLSCAASGSTFGTYVMGWYRQAPGKERELVAAITYSGGSTYYADSVTGRFTISRDNAKNTVYLQMNSLKPEDTAVYYCNADVWSYWYKFDYWGQGTQVTVSS” the “polyreactivity (PSR sort gate)” value was “high polyreactivity”.
With “QVQLVESGGGIVQAGGSLRISCAASGYNFRYNAMGWYRQAPGKERELVATITRGGSTNYPDSVKGRFTISRDNAKNTVYLQMNSMKPEDTAVYYCKKEAAPLGFVPSYYGRDYWGQGTQVTVSS” the “polyreactivity (PSR sort gate)” value was “low polyreactivity”.

Reference: the nanobody polyreactivity screen of Harvey et al. (2022)
